Assay results from publication PMC10769878.

Target: phi3T_93 (Bacillus subtilis phage phi3T)
Assay: SEC-MALS; 20 µl at 1 mg/ml on Shodex KW-402.5-4F, 100 mM HEPES pH 7.5, 250 mM NaCl, 0.3 ml/min

stoichiometry N: 2
Substance: phi3T_93 (natural protein)
